Blank lines part the entries; values can stand above or below the binder they belong to.
Key:
Settings in all cases: both partners purified
[1] = biological target: T1, recombinant mouse laminin γ3 chain C-terminal coiled-coil fragment (1344–1581) (mouse, UniProt Q9R0B6 1344-1581); assay: native gel or EMSA; mixtures of one β and one γ chain fragment; 10% non-denaturing PAGE (acid gels for basic complexes); mixtures reduced, heated to 70 °C for 5 min and cooled; run overnight at 50 V; Coomassie; bands confirmed by in-gel trypsin digestion and mass spectrometry
T1 construct: two residues (GlySer) left from the protease recognition site after thrombin cleavage; laminin γ3 chain, mouse, C-terminal coiled-coil fragment, residues 1344-1581 of the native chain (238 residues); source: E. coli JM109(DE3), purified (Ni2+-Sepharose, denaturing, 8 M urea), 6xHis tag removed by thrombin; not shown: 6xHis, N-terminal, cleaved
T1 sequence: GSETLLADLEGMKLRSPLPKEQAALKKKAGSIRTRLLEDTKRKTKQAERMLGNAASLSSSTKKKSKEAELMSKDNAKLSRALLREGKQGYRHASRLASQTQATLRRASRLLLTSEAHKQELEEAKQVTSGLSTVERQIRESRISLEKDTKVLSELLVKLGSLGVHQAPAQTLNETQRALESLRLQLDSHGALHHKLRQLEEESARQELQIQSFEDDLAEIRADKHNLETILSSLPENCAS

[2] = biological target: T2, recombinant mouse laminin γ1 chain C-terminal coiled-coil fragment (1362–1607) (mouse, UniProt P02468 1362-1607); assay: as above
T2 construct: two residues (GlySer) left from the protease recognition site after thrombin cleavage; laminin γ1 chain, mouse, C-terminal coiled-coil fragment, residues 1362-1607 of the native chain (246 residues); source: E. coli JM109(DE3), purified (Ni2+-Sepharose, denaturing, 8 M urea), 6xHis tag removed by thrombin; not shown: 6xHis, N-terminal, cleaved; pPEP-T leader (short C-terminal fragment of the …)
T2 sequence: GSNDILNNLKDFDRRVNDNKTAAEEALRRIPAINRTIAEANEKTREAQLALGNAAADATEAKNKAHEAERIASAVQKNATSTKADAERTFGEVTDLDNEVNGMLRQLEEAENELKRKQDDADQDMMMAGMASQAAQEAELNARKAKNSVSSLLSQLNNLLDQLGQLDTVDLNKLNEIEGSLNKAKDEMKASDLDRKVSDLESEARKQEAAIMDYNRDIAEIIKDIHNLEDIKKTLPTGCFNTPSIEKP

[3] = biological target: T3, recombinant mouse laminin γ2 chain C-terminal coiled-coil fragment (949–1191) (mouse, UniProt Q61092 949-1191); assay: as above
T3 construct: two residues (GlySer) left from the protease recognition site after thrombin cleavage; laminin γ2 chain, mouse, C-terminal coiled-coil fragment, residues 949-1191 of the native chain (243 residues); source: E. coli JM109(DE3), purified (Ni2+-Sepharose, denaturing, 8 M urea), 6xHis tag removed by thrombin; not shown: 6xHis, N-terminal, cleaved; pPEP-T leader (short C-terminal fragment of the …)
T3 sequence: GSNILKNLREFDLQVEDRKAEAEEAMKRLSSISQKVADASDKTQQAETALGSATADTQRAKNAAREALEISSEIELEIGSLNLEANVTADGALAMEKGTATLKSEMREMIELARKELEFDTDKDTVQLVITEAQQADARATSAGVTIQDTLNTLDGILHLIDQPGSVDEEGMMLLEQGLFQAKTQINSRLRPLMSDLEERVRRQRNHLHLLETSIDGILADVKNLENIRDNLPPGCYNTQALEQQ

[4] = biological target: T4, β2γ1 complex of the recombinant mouse laminin coiled-coil fragments (mouse, UniProt Q61292 1575-1799; P02468 1362-1607); assay: native gel or EMSA; mixtures of one α, one β and one γ chain fragment; 10% non-denaturing PAGE (acid gels for basic complexes); mixtures reduced, heated to 70 °C for 5 min and cooled; run overnight at 50 V, room temperature, no cooling; Coomassie; bands confirmed by in-gel trypsin digestion and mass spectrometry
T4 construct: two residues (GlySer) left from the protease recognition site after thrombin cleavage; laminin β2 chain, mouse, residues 1575-1799 of the native chain; as m7; laminin γ1 chain, mouse, residues 1362-1607 of the native chain; as m9; in the αβγ tests all three chains were mixed, the βγ complex was not isolated beforehand; source: mixture of the purified E. coli fragments; not shown: 6xHis, …
T4 sequence 1: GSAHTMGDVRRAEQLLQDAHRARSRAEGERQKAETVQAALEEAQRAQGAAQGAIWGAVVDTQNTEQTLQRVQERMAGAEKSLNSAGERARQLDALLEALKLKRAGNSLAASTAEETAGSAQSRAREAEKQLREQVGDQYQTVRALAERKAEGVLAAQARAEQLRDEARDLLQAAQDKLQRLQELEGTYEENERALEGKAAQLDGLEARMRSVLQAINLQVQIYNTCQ
T4 sequence 2: T2 sequence

[5] = biological target: T5, β2γ3 complex of the recombinant mouse laminin coiled-coil fragments (mouse, UniProt Q61292 1575-1799; Q9R0B6 1344-1581); assay: as above
T5 construct: two residues (GlySer) left from the protease recognition site after thrombin cleavage; laminin β2 chain, mouse, residues 1575-1799 of the native chain; as m7; laminin γ3 chain, mouse, residues 1344-1581 of the native chain; as m11; in the αβγ tests all three chains were mixed, the βγ complex was not isolated beforehand; source: mixture of the purified E. coli fragments; not shown: 6xHis, …
T5 sequence 1: T4 sequence 1
T5 sequence 2: T1 sequence

[6] = biological target: T6, β1γ1 complex of the recombinant mouse laminin coiled-coil fragments (mouse, UniProt P02469 1561-1786; P02468 1362-1607); assay: as above
T6 construct: two residues (GlySer) left from the protease recognition site after thrombin cleavage; laminin β1 chain, mouse, residues 1561-1786 of the native chain; as m6; laminin γ1 chain, mouse, residues 1362-1607 of the native chain; as m9; heterodimer by AUC; in the αβγ tests all three chains were mixed, the βγ complex was not isolated beforehand; source: mixture of the purified E. coli fragments; not …
T6 sequence 1: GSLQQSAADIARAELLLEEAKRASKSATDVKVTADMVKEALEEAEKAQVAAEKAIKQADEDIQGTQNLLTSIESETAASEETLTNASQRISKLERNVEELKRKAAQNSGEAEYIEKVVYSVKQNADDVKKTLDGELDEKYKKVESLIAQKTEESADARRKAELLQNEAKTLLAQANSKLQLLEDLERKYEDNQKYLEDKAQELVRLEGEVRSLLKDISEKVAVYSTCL
T6 sequence 2: T2 sequence

[7] = biological target: T7, β1γ3 complex of the recombinant mouse laminin coiled-coil fragments (mouse, UniProt P02469 1561-1786; Q9R0B6 1344-1581); assay: as above
T7 construct: two residues (GlySer) left from the protease recognition site after thrombin cleavage; laminin β1 chain, mouse, residues 1561-1786 of the native chain; as m6; laminin γ3 chain, mouse, residues 1344-1581 of the native chain; as m11; in the αβγ tests all three chains were mixed, the βγ complex was not isolated beforehand; source: mixture of the purified E. coli fragments; not shown: 6xHis, …
T7 sequence 1: T6 sequence 1
T7 sequence 2: T1 sequence

[8] = biological target: T8, β2γ2 complex of the recombinant mouse laminin coiled-coil fragments (mouse, UniProt Q61292 1575-1799; Q61092 949-1191); assay: as above
T8 construct: two residues (GlySer) left from the protease recognition site after thrombin cleavage; laminin β2 chain, mouse, residues 1575-1799 of the native chain; as m7; laminin γ2 chain, mouse, residues 949-1191 of the native chain; as m10; in the αβγ tests all three chains were mixed, the βγ complex was not isolated beforehand; also called β2γ2 dimer; source: mixture of the purified E. coli fragments; not …
T8 sequence 1: T4 sequence 1
T8 sequence 2: T3 sequence

B1: recombinant mouse laminin β2 chain C-terminal coiled-coil fragment (1575–1799) (domain or fragment)
chain: T4 sequence 1
notes: two residues (GlySer) left from the protease recognition site after thrombin cleavage; laminin β2 chain, mouse, C-terminal coiled-coil fragment, residues 1575-1799 of the native chain (225 residues); source: E. coli JM109(DE3), purified (Ni2+-Sepharose, denaturing, 8 M urea), 6xHis tag removed by thrombin; not shown: 6xHis, N-terminal, cleaved
binding result [1]: binds
binding result [2]: binds
binding result [3]: binds

B2: recombinant mouse laminin β1 chain C-terminal coiled-coil fragment (1561–1786) (domain or fragment)
chain: T6 sequence 1
notes: two residues (GlySer) left from the protease recognition site after thrombin cleavage; laminin β1 chain, mouse, C-terminal coiled-coil fragment, residues 1561-1786 of the native chain (226 residues); source: E. coli JM109(DE3), purified (Ni2+-Sepharose, denaturing, 8 M urea), 6xHis tag removed by thrombin; not shown: 6xHis, N-terminal, cleaved
binding result [1]: binds
binding result [2]: binds
binding result [3]: binds

B3: recombinant mouse laminin α5 chain C-terminal coiled-coil fragment (2525–2748) (domain or fragment)
chain: GSNAYSSILQAVQAAEDAAGQALRQASRTWEMVVQRGLAAGARQLLANSSALEETILGHQGRLGLAQGRLQAAGIQLHNVWARKNQLAAQIQEAQAMLAMDTSETSEKIAHAKAVAAEALSTATHVQSQLQGMQKNVERWQSQLGGLQGQDLSQVERDASSSVSTLEKTLPQLLAKLSRLENRGVHNASLALSANIGRVRKLIAQARSAASKVKVSMKFNGRSGVR
notes: two residues (GlySer) left from the protease recognition site after thrombin cleavage; laminin α5 chain, mouse, C-terminal coiled-coil fragment, residues 2525-2748 of the native chain (224 residues); source: E. coli JM109(DE3), purified (Ni2+-Sepharose, denaturing, 8 M urea), 6xHis tag removed by thrombin; not shown: 6xHis, N-terminal, cleaved
binding result [4]: binds
binding result [5]: binds
binding result [6]: binds

B4: recombinant mouse laminin α2 chain C-terminal coiled-coil fragment (1924–2145) (domain or fragment)
chain: GSYSNIKDYIDEAEKVAREAKELAQGATKLATSPQGLLKEDAKGSLQKSFRILNEAKKLANDVKGNHNDLNDLKTRLETADLRNSGLLGALNDTMDKLSAITNDTAAKLQAVKEKAREANDTAKAVLAQVKDLHQNLDGLKQNYNKLADSVAKTNAVVKDPSKNKIIADAGTSVRNLEQEADRLIDKLKPIKELEDNLKKNISEIKELINQARKQANSIKVSVS
notes: two residues (GlySer) left from the protease recognition site after thrombin cleavage; laminin α2 chain, mouse, C-terminal coiled-coil fragment, residues 1924-2145 of the native chain (222 residues); source: E. coli JM109(DE3), purified (Ni2+-Sepharose, denaturing, 8 M urea), 6xHis tag removed by thrombin; not shown: 6xHis, N-terminal, cleaved; pPEP-T leader (short C-terminal fragment of the …)
binding result [4]: binds
binding result [7]: binds
binding result [6]: binds

Further lines, results first:

binding result [3]: binds
B5: recombinant mouse laminin β3 chain C-terminal coiled-coil fragment (945–1168) (domain or fragment)
chain: GSLSQTKQDIARARRLQAEAEQARSRAHAVEGQVDDVVGNLRQGTVALQEAQDTMQGTGRSLRLIQERVGEVQQVLVPAERLVKGMKEQMSGFWARMKELRRQAQEEQAQAMQARQLAEGASQQAMNAQEGFKRLKQKYTELKDRLGQSPVLGEQGNRILSIKMEAEELFGETMEMMDKMKDMESELLRGSQAIMLRSADLSGLEKRVEQIRSYINGRVLYYATCK
notes: two residues (GlySer) left from the protease recognition site after thrombin cleavage; laminin β3 chain, mouse, C-terminal coiled-coil fragment, residues 945-1168 of the native chain (224 residues); source: E. coli JM109(DE3), purified (Ni2+-Sepharose, denaturing, 8 M urea), 6xHis tag removed by thrombin; not shown: 6xHis, N-terminal, cleaved

binding result [4]: binds
binding result [6]: binds
B6: recombinant mouse laminin α1 chain C-terminal coiled-coil fragment (1911–2125) (domain or fragment)
chain: GSHVHSNIQTLTEEAEMLAADAHKTANKTDLISESLASRGKAVLQRSSRFLKESVSTRRKQQGITMKLDELKNLTSQFQESMDNIMKQANDSLAMLRESPGGMREKGRKARELAAAANESAVKTLEDVLALSLRVFNTSEDLSRVNATVQETNDLLHNSTMTTLLAGRKMKDMEMQANLLLDRLKPLKTLEENLSRNLSEIKLLISRARKQVASIKV
notes: two residues (GlySer) left from the protease recognition site after thrombin cleavage; laminin α1 chain, mouse, C-terminal coiled-coil fragment, residues 1911-2125 of the native chain (215 residues); source: E. coli JM109(DE3), purified (Ni2+-Sepharose, denaturing, 8 M urea), 6xHis tag removed by thrombin; not shown: 6xHis, N-terminal, cleaved; pPEP-T leader (short C-terminal fragment of the …)

binding result [4]: binds
binding result [8]: binds
binding result [5]: binds
binding result [6]: binds
B7: recombinant mouse laminin α4 chain C-terminal coiled-coil fragment (616–842) (domain or fragment)
chain: GSASNVYENIANYVSEANETAELALNITDRIYDAVSGIDTQIIYHKDESDNLLNQARELQAKADSSNDEAVADTSRRVGGALWRKGALRDRLNDAVKQLQAAERGDAHQRLGQSKLFIEEANKTTAAVQQVTTPMANNLSNWSQNLQTFDSSAYNTAVDSARDAVRNLTEVVPQLLDQLRTVEQKRPASNISASIQRIRELIAQTRSVASKIQVSMMFDGQSAVEVHPK
notes: two residues (GlySer) left from the protease recognition site after thrombin cleavage; laminin α4 chain, mouse, C-terminal coiled-coil fragment, residues 616-842 of the native chain (227 residues); source: E. coli JM109(DE3), purified (Ni2+-Sepharose, denaturing, 8 M urea), 6xHis tag removed by thrombin; not shown: 6xHis, N-terminal, cleaved; pPEP-T leader (short C-terminal fragment of the …)

From PMC2877795, “Laminin chain assembly is regulated by specific coiled-coil interactions” (Journal of Structural Biology, 2010)
